This is an account of results in publication PMC2958096.

For data set [1], the target named is T1, SUD-C (SARS-CoV, UniProt P0C6U8 1473-1538). The data set can be described thus: NMR chemical shift perturbation.
The target of data set [2] is T2, SUD-MC (SARS-CoV, UniProt P0C6U8 1345-1538). Description: NMR chemical shift perturbation.
For data set [3], the target named is T2, SUD-MC. Description: EMSA.
The target in data set [4] is T3, SUD-M (SARS-CoV, UniProt P0C6U8 1345-1469). Description: EMSA. In general terms: A gel shift assay detects complexes by their altered migration in electrophoresis.
For data set [5], the target named is T2, SUD-MC. Description: NMR chemical shift perturbation. The source holds these as a separate data set.
The target of data set [6] is T3, SUD-M.
The target in data set [7] is T3, SUD-M. The data set can be described thus: EMSA. This is another data set of the same source.
The target of data set [8] is T1, SUD-C. Description: EMSA.
The target in data set [9] is T2, SUD-MC. Description: EMSA. This is another data set of the same source.
Data set [10] has as its target T1, SUD-C. Description: NMR chemical shift perturbation. This is another data set of the same source.
For data set [11], the target named is T3, SUD-M. The data set can be described thus: NMR chemical shift perturbation.
For data set [12], the target named is T2, SUD-MC. Description: NMR chemical shift perturbation. This is another data set of the same source.
Data set [13] has as its target T2, SUD-MC. Description: EMSA. The source holds these as a separate data set.
In data set [14] the target is T3, SUD-M. The data set can be described thus: EMSA. The source holds these as a separate data set.

Read-outs that look alike come from different tables or passages of the source.

Consider AAAAAAAAAA (ssRNA) [A10], for which the binding result with SUD-C [1] and in the data set with SUD-MC [2] was “binds” each time.

For the molecule GGGAGGGAGG (ssRNA), the binding result with SUD-MC [3] and in the data set with SUD-M [4] was “binds” each time.

Turning to CUAAACGAAC (ssRNA) [TRS(+)], the binding result with SUD-MC [5] is given as “binds”; with SUD-M [6], “no binding”.

As to ACUGACUGACUGACUGACUG (ssRNA) [(ACUG)5], the binding result with SUD-M [7] is reported as “binds”; in the data set with SUD-C [8], “no binding”; with SUD-MC [9] it was “no binding”.

For GUUCGUUUAG (ssRNA) [TRS(-)], the binding result with SUD-M [6] is “no binding”.

Regarding GGGGGGGGGG (ssRNA) [G10], the binding result with SUD-C [10] was “binds”.

Regarding GGAGGAGGAGGA (ssRNA) [(GGA)4], the binding result in the data set with SUD-M [11] and in the data set with SUD-MC [12] was “binds” in each case.

GGGAGGGAGGGAGGGAGGGA (ssRNA) [(GGGA)5]: the binding result with SUD-C [8] was “no binding”; in the data set with SUD-M [4] it was “binds”; with SUD-MC [13], “binds”.

In the case of GGGAGGGA (ssRNA), the binding result in the data set with SUD-M [14] is reported as “binds”.
